According to US20070224212A1:

How the values were obtained:
[1] = target: (Biotin-CCIZN23)3; experiment: BIAcore SPR; (biotin-CCIZN23)3 immobilized on SA chip, D5-scFv in solution
[2] = target: HIV-1 gp41 (strain 89.6) (HIV-1 strain 89.6); experiment: cell-based or functional assay
[3] = target: HIV-1 gp41 (strain HXB2) (HIV-1 strain HXB2) (UniProt P04578); experiment: cell-based or functional assay
[4] = target: HIV-1 gp41 (strain BaL) (HIV-1 strain BaL); experiment: cell-based or functional assay
[5] = target: HIV-1 gp41 (strain MN-1) (HIV-1 strain MN-1) (UniProt P05877); experiment: cell-based or functional assay
[6] = target: HIV-1 gp41 (strain NL4-3) (HIV-1 strain NL4-3); experiment: cell-based or functional assay
[7] = target: (Biotin-CCIZN23)3; experiment: BIAcore SPR; D5 IgG immobilized on CM5 chip, (biotin-CCIZN23)3 in solution
[8] = target: Biotin-IZN36; experiment: BIAcore SPR; D5 IgG immobilized on CM5 chip, biotin-IZN36 in solution
[9] = target: D5 IgG; experiment: AlphaScreen competition: peptide titrated against the binding of D5-IgG to biotinylated-IQN17

Substance | IC50, single-cycle HIV infectivity assay [2] | IC50, single-cycle HIV infectivity assay [3] | IC50, single-cycle HIV infectivity assay [4] | IC50 (read off the curve) [9] | further results
D5-scFv |  |  |  |  | Kd [1]: 0.2 nM
D5 IgG (antibody) | 1750 nM | 310 nM | 93 nM |  | IC50, HIV single cycle infectivity assay, HIV-HXB2 [3]: 1350 nM; IC50, HIV-1 single-cycle infectivity assay, strain HXB2 (FIG. 17A) [3]: 144 µg/mL; IC50, single-cycle HIV infectivity assay [5]: 393 nM; IC50, single-cycle HIV infectivity assay [6]: 226 nM; Kd [7]: 0.22 nM; Kd [8]: 0.17 nM
IZN17 L565M (peptide) |  |  |  | 10 nM | 
IZN17 Q567R (peptide) |  |  |  | 10 nM | 
T-20 (peptide) | 29 nM | 5.3 nM | 2.4 nM |  | 
